Consider 40 sequences from the nanobody polyreactivity screen of Harvey et al. (2022).

A short description of the data set: yeast display, Sf9 membrane polyspecificity reagent, FACS + sequencing; frameworks hold sequencing errors. The method in brief: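 Synthetic nanobody libraries on Saccharomyces cerevisiae BJ5465 were galactose-induced for 36–48 hours, stained 1 hour at 4 °C with 10% biotinylated, detergent-solubilized Sf9 membrane reagent and enriched on streptavidin microbeads. FACS then separated cells into low and high (top ~1%) gates by anti-HA (expression) and streptavidin (reagent binding) fluorescence. Genes were colony-PCR amplified, MiSeq 2 × 250 sequenced and CDR-length filtered. A clone's polyreactivity label is that of its gate of origin.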
On to “QVQLVESGGGLVQAGGSLRLSCAASGNTFGTYVMGWYRQAPGKERELVAAISQSGGSTDYADSVKGRFTISRYNAKNTVYLQMNSLKPEDTAVYYCATDGHYLYNRKYYRLTRYYYWGQGTQVTVSS”, for which the “polyreactivity (PSR sort gate)” value is recorded as “low polyreactivity”. Turning to “QVQLVESGGGLVQAGGSLRLSCAASGNTFHSNAMGWYRQAPGKERELVAAITPSDGDTYYADSVKGRFTISRDIAKNTVYLQMNSLKPEDTAVYYCAADPEPSYRFDYWGQGTQVTVSS”, the “polyreactivity (PSR sort gate)” value was “low polyreactivity”. With “QVQLVESGGGLVQAGGSLRLSCAASGNTFKDYTMGWFRQAPGTERELVASINSGGSTNYADSVKGRFTISRDNAKNTVYLQMNSLKPEDTAVYDCAKRAWSDYNPIDYWGQGTQVTVSS”, the “polyreactivity (PSR sort gate)” value is “low polyreactivity”. Consider “QVQLVESGGGLVQAGGSLRLSCAASGNTFKYYAMGWYRQAPGKERVLVATISRTAGSTYYADSVKGRFTISRDNAKNTVYLQMNSLKPEDTAVYYCNKDRGHPFKYDYWGQGTQVTVSS”, for which the “polyreactivity (PSR sort gate)” value was “low polyreactivity”.

As for “QVQLVESGGGLVQAGGSLRLSCAASGNTFLPYAMGWYRQPPGKERELVAAISWSGGSTYYADSVKGRFTISRDTAKNTVYLQMNSLKPEDTAVYYCAATPTRRYYRQSAYDYWGQGTQVTVSS”, the “polyreactivity (PSR sort gate)” value was “high polyreactivity”. Consider “QVQLVESGGGLVQAGGSLRLSCAASGNTFLVNVMGWYRQAPGKERELVASITINDGSTYYADSVKGRFTISRDNAKNTVYLQMNSLKPDDTAVYYCAADGVVPGRFFWPAHEYDYWGQGTQVTVSS”, for which the “polyreactivity (PSR sort gate)” value is “low polyreactivity”. Turning to “QVQLVESGGGLVQAGGSLRLSCAASGNTFLYYAMGWYRQAPGKEMELVASINLSDGCTYYADSVKGRFTISRDNAKNTVYFQMTSLKPEDTAVYYCAAVFGGYTIYDYWGQGTQVTVSS”, the “polyreactivity (PSR sort gate)” value is given as “low polyreactivity”. For the sequence “QVQLVESGGGLVQAGGSLRLSCAASGNTFNSYAMGWYRQAPGKERELVAAIRWRGTSTYYADSVKGRFTISRDTAKNTVYLQMNSLKPEDTAVYYCAADVVRSNFYGTFLYDYDYWGQGTQVTVSS”, the “polyreactivity (PSR sort gate)” value is reported as “low polyreactivity”.

Consider “QVQLVESGGGLVQAGGSLRLSCAASGNTFPFNAMGWYRQAPGKERELVAAISRGGSTYYADSVKGRFTISRDNAKNTVYLQMISLKPEDTAVYYCAVSAGKRRLDYWGQGTQVTVSS”, for which the “polyreactivity (PSR sort gate)” value was “high polyreactivity”. For “QVQLVESGGGLVQAGGSLRLSCAASGNTFPRYAMGWYRQAPGKERELVASISWSGGSTYYADSVKGRFTISRDNAKNTVYLQMNSLKPEDTAVYYCNARRAYRAWYYPYDYWGQGTQVTVSS” the value was “high polyreactivity”; for “QVQLVESGGGLVQAGGSLRLSCAASGNTFPSYVMGWYRQAPGKERELVAAINRGGGTYYADSVKGRFTISRDNAKNTVYLQMNSLKPEVTAVYYCAVRDQRHPYMDYWGQGTQVTVSA”, “low polyreactivity”.

For the sequence “QVQLVESGGGLVQAGGSLRLSCAASGNTFPTYAMGWYRQAPGKERELVAAISRRGGSTYYADSVKGRFTISRDNAKNTVYLQMNSLKPEDTAVYYCARPRRSVNVYKYIYNYWGQGTQVTVSS”, the “polyreactivity (PSR sort gate)” value is recorded as “high polyreactivity”. Take “QVQLVESGGGLVQAGGSLRLSCAASGNTFPVYAMGWYRQASGKERELVATITSGGSTNYADSVKGRFTISRDNAKNTVYLQMNSLKPEDTAVYYCARRAVYSKRRYDYWGQVTQVTVSS”: the “polyreactivity (PSR sort gate)” value was “low polyreactivity”. With “QVQLVESGGGLVQAGGSLRLSCAASGNTFQRYTMGWYRQAPGKERELVAAITWSGGNTYYADSVKGRFTISRDNAKNTVYLQMNSLKPEDTAVYYCATYYWLGLSLYDYWGQGTQVTVSS”, the “polyreactivity (PSR sort gate)” value was “low polyreactivity”. With “QVQLVESGGGLVQAGGSLRLSCAASGNTFRDYAMGWYRQAPGKERELVAAITSAGARTYYADSVKGRFTISRDNAKNTVYLQMNSLKPEDTAVYYCAADWSGYYTYDYWGQGTQVTVSS”, the “polyreactivity (PSR sort gate)” value is given as “low polyreactivity”. In the case of “QVQLVESGGGLVQAGGSLRLSCAASGNTFRFYAMGWYRQAPGKERELVADITRGGSTNYADSVKGRFTISRDNAKNTVYLQMNSLKPEDTAVYYCAARPWYYTSSFYYGRYDYWGQGTQVTVSS”, the “polyreactivity (PSR sort gate)” value was “high polyreactivity”. In the case of “QVQLVESGGGLVQAGGSLRLSCAASGNTFRWYVMGWYRQAPGKERELVAAITSSGSTTYYADSVKGRFTISRDNAKNTVYLQLNSLKPEDTAVYYCAARNYGPYDYWGQGTQVTVSS”, the “polyreactivity (PSR sort gate)” value was “low polyreactivity”.

As to “QVQLVESGGGLVQAGGSLRLSCAASGNTFRWYVMGWYRQAPGKERELVAAITSSGSTTYYADSVKGRFTISRDNAKNTVYLQMNSLKPEDTAVYYCAADGRTITYSPVDYDSWGQGTQVTVSS”, the “polyreactivity (PSR sort gate)” value is reported as “low polyreactivity”. Then “QVQLVESGGGLVQAGGSLRLSCAASGNTFRYYAMGWYRQAPGKERELVAAINRSGGRTYYADSVKGRFTISRDNAKNTVYLQMNSLKPEDTAVYYCARSIRYGRGVYKGGYWGQGTQVTVSS”, with “high polyreactivity”.

For “QVQLVESGGGLVQAGGSLRLSCAASGNTFRYYAMGWYRQAPGKERELVAAISESGGRTYYADSVKGRFTISRDNAKNTVYLQMNSLNPEDTAVYYCAASRWARTWWYGYNYWGQGTQVTVSS”, the “polyreactivity (PSR sort gate)” value is recorded as “high polyreactivity”.

As to “QVQLVESGGGLVQAGGSLRLSCAASGNTFSGNAMGWYRQAPGKQRELVATINSGGGSTNYADSVTGRFSISRDNAKNTVYLQMNSLKPEDTAGYYCAASAYTWRGIDSSYLTVTYDYWGQGTQVTVSS”, the “polyreactivity (PSR sort gate)” value is on record as “low polyreactivity”. As to “QVQLVESGGGLVQAGGSLRLSCAASGNTFSNYAMGWYRQAPGKERELVAAISRSGGRTYYADSVKGRFTISRDNAKNSVYLKMNSLKPEDTAVYDCIATSNGESYYWGQGTQVTVSS”, the “polyreactivity (PSR sort gate)” value was “high polyreactivity”.

“QVQLVESGGGLVQAGGSLRLSCAASGNTFSPYVMGWYRQAPGKERELVAAISKGGGSTYYADSVKGRFTISRDNAKNTVYLQMNSLKPEDTAVYYCAASAGPRASYYYWGQGTQVTVSS”: the “polyreactivity (PSR sort gate)” value is reported as “high polyreactivity”. As for “QVQLVESGGGLVQAGGSLRLSCAASGNTFTSYAMGWYRQAPGKERELVAAISASGSSTYYADSVKGRFTISRDNAKNTVYLQMNSLKPEDTAVYYCNAVKYRVESSYDYWGQGTQVTVSS”, the “polyreactivity (PSR sort gate)” value was “low polyreactivity”. For “QVQLVESGGGLVQAGGSLRLSCAASGNTFTTYAMGWYRQAPGKERELVAAISRRGGSTYYADSVKGRFTISRDNAKNTVYLQMNSLKPDDTAVYYCARRYFYTYGYWGQGTQVTVSS” the value was “high polyreactivity”; for “QVQLVESGGGLVQAGGSLRLSCAASGNTFTVNAMGWYRQAPGKERELVAAINYSGGSTYYADSVKGRFTISRDNAKNTVYLQMNSLKPEDTAVYYCAASPDELLYEMYYWGQGTQVTVSS”, “low polyreactivity”.

On to “QVQLVESGGGLVQAGGSLRLSCAASGNTFVAYAMGWYRQAPGKERELVAGITRGGTTYYADSVKGRFTISRDNAKNTVYLQMNSLKPEDTAVYYCAARLGYRYNYWGQGTQVTVSS”, for which the “polyreactivity (PSR sort gate)” value is “high polyreactivity”. For “QVQLVESGGGLVQAGGSLRLSCAASGNTFVDYAMVWYRQAPGKERELVAAIDQTGGSTYYADSVKGRFTISRDNAKNTVYLQMNSLKPEDTAVYYCARDLAYRKDLYPRWYDYWGQGTQVTVSS”, the “polyreactivity (PSR sort gate)” value is reported as “low polyreactivity”. For “QVQLVESGGGLVQAGGSLRLSCAASGNTFVPYVMGWYRQAHGKERELVAAISRRGGSTRYADSVKGRFTISRDNAKNTVYLQMNSLKPEDTAVYYCAADGYVFALQRSRGVDFGYEYWGQGTQGTVSS”, the “polyreactivity (PSR sort gate)” value is listed as “high polyreactivity”. As to “QVQLVESGGGLVQAGGSLRLSCAASGNTFWYYAMGWYRQAPGKEREFVAAISRRGTTTYYADSVKWRFTISRDNAKNTVYLQMNSLKPEDTAVYYCAARRYVSVFRVSATGLDLGYWGQGTQVTVSS”, the “polyreactivity (PSR sort gate)” value is on record as “high polyreactivity”. On to “QVQLVESGGGLVQAGGSLRLSCAASGNTFWYYAMGWYRQAPGKERELVAAISWDGGITYYADSVKGRFTISRDNAKNTVFLQMNRLKPEDTAVYYCATLIPRKGSRYYHRGYWGQGTQLTVSS”, for which the “polyreactivity (PSR sort gate)” value is recorded as “high polyreactivity”. On to “QVQLVESGGGLVQAGGSLRLSCAASGNTFYDNAMGWYRQTPGKERELVAAISYNDGDTYYADSVKGRFTISRDNAKNTVYLQMNSLKPEDTAVYFCAAVVRRVRGARGQEGDNYWGQGTQVTVSS”, for which the “polyreactivity (PSR sort gate)” value is “high polyreactivity”. For “QVQLVESGGGLVQAGGSLRLSCAASGNTFYGYAMGWYRPAPGKERELVASITLSGDSTYYADSVKGRFTISRDNAKNTVYLQMNSLKPEDTAVYYCAGVYTYPLGYYHYTYDYWGQGTQVTVSS”, the “polyreactivity (PSR sort gate)” value is “low polyreactivity”.

Regarding “QVQLVESGGGLVQAGGSLRLSCAASGNTFYGYAMGWYRQAPGKERELVASITLSGDSTYYADSVKGRFTISRDNAMNTVYLQMNSLKPEYTAVYYCAGVYTYPLGYYHYTYDYWGQGTQVTVSS”, the “polyreactivity (PSR sort gate)” value is “low polyreactivity”. In the case of “QVQLVESGGGLVQAGGSLRLSCAASGNTFYKYAMGWYRQAPGKERELVADISWSGGSTYYADSVKGRFTISRDNAKNTVYLQMNSLKPEDTAVYYCNADTPVWDGHAYPVDYWGQGTQVTVSS”, the “polyreactivity (PSR sort gate)” value is “low polyreactivity”. In the case of “QVQLVESGGGLVQAGGSLRLSCAASGNTFYRNAMGWSRQAPGKERELVAAIDYSAGSTYYADSVKGRFTISRDNAKNTVYLQMNSLKPEDTAVYYCAADARTSRGRRYYYWGQGTQVTVSS”, the “polyreactivity (PSR sort gate)” value was “low polyreactivity”.

On to “QVQLVESGGGLVQAGGSLRLSCAASGNTFYRYAMGWYRQAPGKERELVAAISWSGSSTYYADSVKGRFTISRDNAKNTVYLQMNSLKPEDTAVYYCAAGTYDGGYHYDYWGQGTQVTVSS”, for which the “polyreactivity (PSR sort gate)” value was “high polyreactivity”.

As for “QVQLVESGGGLVQAGGSLRLSCAASGNTFYVNVMGWYRQAPGKEREFVAAISTRGVSTSYADSVKGRVTISRDNAKNTVYLQMNSLKPEDTAVYYCAASFRRPQPKGSTYGYWGQGTQVTVSS”, the “polyreactivity (PSR sort gate)” value is reported as “high polyreactivity”.

Consider “QVQLVESGGGLVQAGGSLRLSCAASGNTFYVNVMGWYRQAPGKERELVARITTSGGSTSYADSVKGRFTISRDNAKNTVYLQMNSLKPEDTAVYYCAADFPEYYLPYDYWGQGTQVTVSS”, for which the “polyreactivity (PSR sort gate)” value is recorded as “low polyreactivity”. For “QVQLVESGGGLVQAGGSLRLSCAASGNTFYWNAMGWYRQAPGKERELVAAISTTGVSTYYADSVKGRFTISRDNAKNTVYLQMNSLKPEDTAVYYCAAEIIGYHTIYDYWGQGTQVTVSS” the value was “low polyreactivity”.
